Laboratory results: publication PMC12636746, “Structural Basis for TRF2-RAP1 Recruitment by EBNA1 at the EBV origin of replication” (Research Square, 2025)
Changes are numbered by the printed parent chain.

B1: EBNA1 DNA binding domain (DBD) aa 401–607 (domain or fragment)
chain: GRRPFFHPVGEADYFEYHQEGGPDGEPDVPPGAIEQGPADDPGEGPSTGPRGQGDGGRRKKGGWFGKHRGQGGSNPKFENIAEGLRALLARSHVERTTDEGTWVAGVFVYGGSKTSLYNLRRGTALAIPQCRLTPLSRLPFGMAPGPGPQPGPLRESIVCYFMVFLQTHIFAEVLKDAIKDLVMTKPAPTCNIRVTVCSFDDGVDLP
notes: also called EBNA1 DBD; EBNA1(401–607); source: E. coli, autoinduction medium, purified (Ni-NTA, Superdex 75); not shown: His6-SUMO, N-terminal, cleaved
B2: EBNA1 459–607 (domain or fragment)
chain: RKKGGWFGKHRGQGGSNPKFENIAEGLRALLARSHVERTTDEGTWVAGVFVYGGSKTSLYNLRRGTALAIPQCRLTPLSRLPFGMAPGPGPQPGPLRESIVCYFMVFLQTHIFAEVLKDAIKDLVMTKPAPTCNIRVTVCSFDDGVDLP
notes: also called shorter EBNA1 459–607; core structured DBD; source: E. coli (all constructs), purified
B3: pre-assembled full length TRF2/Rap1 complex (complex)
chain 1: MAAGAGTAGPASGPGVVRDPAASQPRKRPGREGGEGARRSDTMAGGGGSSDGSGRAAGRRASRSSGRARRGRHEPGLGGPAERGAGEARLEEAVNRWVLKFYFHEALRAFRGSRYGDFRQIRDIMQALLVRPLGKEHTVSRLLRVMQCLSRIEEGENLDCSFDMEAELTPLESAINVLEMIKTEFTLTEAVVESSRKLVKEAAVIICIKNKEFEKASKILKKHMSKDPTTQKLRNDLLNIIREKNLAHPVIQNFSYETFQQKMLRFLESHLDDAEPYLLTMAKKALKSESAASSTGKEDKQPAPGPVEKPPREPARQLRNPPTTIGMMTLKAAFKTLSGAQDSEAAFAKLDQKDLVLPTQALPASPALKNKRPRKDENESSAPADGEGGSELQPKNKRMTISRLVLEEDSQSTEPSAGLNSSQEAASAPPSKPTVLNQPLPGEKNPKVPKGKWNSSNGVEEKETWVEEDELFQVQAAPDEDSTTNITKKQKWTVEESEWVKAGVQKYGEGNWAAISKNYPFVNRTAVMIKDRWRTMKRLGMN
chain 2: MAEAMDLGKDPNGPTHSSTLFVRDDGSSMSFYVRPSPAKRRLSTLILHGGGTVCRVQEPGAVLLAQPGEALAEASGDFISTQYILDCVERNERLELEAYRLGPASAADTGSEAKPGALAEGAAEPEPQRHAGRIAFTDADDVAILTYVKENARSPSSVTGNALWKAMEKSSLTQHSWQSLKDRYLKHLRGQEHKYLLGDAPVSPSSQKLKRKAEEDPEAADSGEPQNKRTPDLPEEEYVKEEIQENEEAVKKMLVEATREFEEVVVDESPPDFEIHITMCDDDPPTPEEDSETQPDEEEEEEEEKVSQPEVGAAIKIIRQLMEKFNLDLSTVTQAFLKNSGELEATSAFLASGQRADGYPIWSRQDDIDLQKDDEDTREALVKKFGAQNVARRIEFRKK
notes: source: E. coli, each protein purified; complex pre-assembled and purified by glycerol gradient; not shown: His6-SUMO, N-terminal, cleaved
B4: EBNA1ΔGA (Δ90–325), wild type (natural protein)
chain: MSDEGPGTGPGNGLGEKGDTSGPEGSGGSGPQRRGGDNHGRGRGRGRGRGGGRPGAPGGSGSGPRHRDGVRRPQKRPSCIGCKGTHGGTGGGRGRGGSGGRGRGGSGGRGRGGSGGRRGRGRERARGGSRERARGRGRGRGEKRPRSPSSQSSSSGSPPRRPPPGRRPFFHPVGEADYFEYHQEGGPDGEPDVPPGAIEQGPADDPGEGPSTGPRGQGDGGRRKKGGWFGKHRGQGGSNPKFENIAEGLRALLARSHVERTTDEGTWVAGVFVYGGSKTSLYNLRRGTALAIPQCRLTPLSRLPFGMAPGPGPQPGPLRESIVCYFMVFLQTHIFAEVLKDAIKDLVMTKPAPTCNIRVTVCSFDDGVDLPPWFPPMVEGAAAEGDDGDDGDEGGDGDEGEEGQE
notes: also called WT EBNA1; "full-length" EBNA1; source: E. coli, autoinduction medium, purified (Ni-NTA, Superdex 75); not shown: His6-SUMO, N-terminal, cleaved
B5: TRF2 homodimerization domain (TRFH), residues 85–287 of TRF2 (domain or fragment, UniProt Q15554 85-287, looked up)
chain: AGEARLEEAVNRWVLKFYFHEALRAFRGSRYGDFRQIRDIMQALLVRPLGKEHTVSRLLRVMQCLSRIEEGENLDCSFDMEAELTPLESAINVLEMIKTEFTLTEAVVESSRKLVKEAAVIICIKNKEFEKASKILKKHMSKDPTTQKLRNDLLNIIREKNLAHPVIQNFSYETFQQKMLRFLESHLDDAEPYLLTMAKKALK
notes: also called TRFH domain; TRF2 dimerization domain; source: E. coli (all constructs), purified

Legend:
Conditions in all cases: both partners purified
full-length TRF2 = target: T1, full-length TRF2 (UniProt Q15554 1-542); assay: native gel or EMSA; EBNA1 DBD pre-formed on the 60 bp ½DS DNA probe (5 nM, IRD700), TRF2 and then Rap1 added; 10 mM HEPES pH 7.5, 300 mM KCl, 5 mM MgCl2, 1 mM ZnCl2, 5 mM BME, 0.05% NP-40, 5% glycerol; 1.4% agarose gel
T1 construct: also called TERF2; source: E. coli, autoinduction medium, purified (Ni-NTA, Superdex 75); not shown: His6-SUMO, N-terminal, cleaved
T1 sequence (looked up): B3 chain 1

full-length Rap1 = target: T2, full-length Rap1 (human, UniProt Q9NYB0 1-399); assay: as above
T2 construct: also called TERF2IP; source: E. coli, autoinduction medium, purified (Ni-NTA, Superdex 75); not shown: His6-SUMO, N-terminal, cleaved
T2 sequence (looked up): B3 chain 2

[1] = target: B5; assay: native gel or EMSA; TRFH domain added to the ½DS-EBNA1 complex; binding buffer lowered to 100 mM KCl, highest TRFH 10 μM (1000-fold excess); under standard conditions only a weak supershift
[2] = target: T3, EBNA1Δ90–325 3x (E495A D499A E500A) (Epstein-Barr virus, UniProt P03211 1-641, Δ90–325 | E495A | D499A | E500A); assay: native gel or EMSA; pre-assembled TRF2-Rap1 complex (glycerol gradient) serially diluted onto pre-assembled ½DS-EBNA1 complex (10X stock 200 nM EBNA1, 50 nM ½DS DNA); binding buffer with 300 mM KCl; 1.4% agarose gel
T3 construct: also called 3x mutant EBNA1; source: E. coli, autoinduction medium, purified (Ni-NTA, Superdex 75); not shown: His6-SUMO, N-terminal, cleaved
T3 sequence: B4 chain with E259A, D263A, E264A

[3] = target: B3; assay: as above
[4] = target: B1; assay: native gel or EMSA; TRFH domain added to the ½DS-EBNA1 complex; binding buffer lowered to 100 mM KCl, highest TRFH 10 μM (1000-fold excess); under standard conditions only a weak supershift

B1
binding result (full-length TRF2): binds
binding result (full-length Rap1): binds

B2
binding result [1]: binds

B3
fold weaker than with WT EBNA1 [2]: ~2 fold

B4
binding result [3]: binds

B5
binding result [4]: binds
